Patent publication US20150197564A1 (Regeneron, published 2015)

Key:
[1] = biological target: T1, hANGPTL3(17-460)-His (human, UniProt Q9Y5C1 17-460); assay: SPR Biacore, antigen captured, 25C, pH 7.2, PBSP
T1 construct: Bought protein (R&D Systems); also called full-length mature human ANGPTL3 with a C-terminal decahistidine tag; Human ANGPTL3 (17-460)-His
T1 sequence: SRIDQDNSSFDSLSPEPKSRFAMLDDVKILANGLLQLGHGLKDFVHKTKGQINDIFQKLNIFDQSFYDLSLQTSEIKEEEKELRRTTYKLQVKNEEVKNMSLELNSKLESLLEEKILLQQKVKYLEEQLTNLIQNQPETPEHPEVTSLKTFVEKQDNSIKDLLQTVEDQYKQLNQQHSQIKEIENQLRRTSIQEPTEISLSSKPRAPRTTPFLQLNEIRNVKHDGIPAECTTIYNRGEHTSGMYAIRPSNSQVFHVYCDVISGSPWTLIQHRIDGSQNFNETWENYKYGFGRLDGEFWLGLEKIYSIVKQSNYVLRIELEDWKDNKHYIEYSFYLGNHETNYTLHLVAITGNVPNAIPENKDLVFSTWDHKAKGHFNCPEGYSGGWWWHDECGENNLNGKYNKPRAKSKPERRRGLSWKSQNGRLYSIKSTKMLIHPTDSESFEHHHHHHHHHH
Description: (§1) All kinetic binding experiments were performed at 25° C. or 37° C. on a BIACORE™ T200 label-free molecular interaction instrument (GE Healthcare) using a CM5 sensor chip. Briefly, an antigen capture surface was generated by covalently coupling either an anti-mouse IgG-specific antibody (anti-mFc; GE Healthcare; catalog #BR-1008-38) or an anti-pentahistidine-specific antibody (Qiagen; catalog #34660) to the surface of a CM5 sensor chip using a standard amine coupling method.

[2] = biological target: T2, hANGPTL3(17-170)-His (human, UniProt Q9Y5C1 17-170); assay: SPR Biacore, antigen captured, 25C, pH 7.2, PBSP
T2 construct: also called N-terminal coiled-coil domain of hANGPTL3 with a C-terminal hexahistidine tag; Human ANGPTL3 (17-170)-His
T2 sequence: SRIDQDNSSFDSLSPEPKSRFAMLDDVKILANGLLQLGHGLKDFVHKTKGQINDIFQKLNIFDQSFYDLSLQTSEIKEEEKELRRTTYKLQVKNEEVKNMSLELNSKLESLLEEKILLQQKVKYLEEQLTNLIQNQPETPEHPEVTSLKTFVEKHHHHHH
Description: as §1

[3] = biological target: T3, MfANGPTL3(17-170)-mmH (Macaca fascicularis); assay: SPR Biacore, antigen captured, 25C, pH 7.2, PBSP
T3 construct: also called N-terminal coiled-coil domain of ANGPTL3 from Macaca fascicularis with myc-myc-hexahistidine tag; Monkey ANGPTL3 (17-170)-mmH
T3 chain: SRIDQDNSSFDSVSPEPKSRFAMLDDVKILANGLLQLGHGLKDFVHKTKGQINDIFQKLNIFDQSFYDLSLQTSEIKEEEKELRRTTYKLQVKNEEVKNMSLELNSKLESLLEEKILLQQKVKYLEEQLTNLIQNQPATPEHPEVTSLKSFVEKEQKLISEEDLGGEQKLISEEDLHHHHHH
Description: as §1

[4] = biological target: T1, hANGPTL3(17-460)-His; assay: SPR Biacore, antigen captured, 25C, pH 7.4, HBS-EP
Summary of the method: (§2)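 Antigen was captured on a CM5 chip via amine-coupled anti-mouse IgG Fc or anti-pentahistidine antibody, and binding kinetics were measured by label-free SPR at 25 °C or 37 °C.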

[5] = biological target: T4, hANGPTL3(17-169)-mFc (human); assay: SPR Biacore, antigen captured, 25C, pH 7.4, HBS-EP
T4 construct: also called N-terminal coiled-coil domain of hANGPTL3 with a C-terminal mouse Fc fusion
T4 chain: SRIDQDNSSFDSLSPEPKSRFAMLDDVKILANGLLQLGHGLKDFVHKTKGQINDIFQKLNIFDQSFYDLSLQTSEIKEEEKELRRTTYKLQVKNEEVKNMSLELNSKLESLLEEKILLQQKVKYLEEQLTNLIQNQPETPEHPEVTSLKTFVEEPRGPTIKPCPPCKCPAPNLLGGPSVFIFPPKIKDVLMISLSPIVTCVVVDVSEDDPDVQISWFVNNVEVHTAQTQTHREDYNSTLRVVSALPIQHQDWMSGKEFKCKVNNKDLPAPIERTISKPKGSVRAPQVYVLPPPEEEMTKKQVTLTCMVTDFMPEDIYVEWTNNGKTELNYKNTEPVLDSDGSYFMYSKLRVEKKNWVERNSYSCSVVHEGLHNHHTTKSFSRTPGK
Summary of the method: as §2

[6] = biological target: T5, mANGPTL3(17-240)-His (Mus musculus, UniProt Q9R182 17-240); assay: SPR Biacore, antigen captured, 25C, pH 7.4, HBS-EP
T5 construct: also called N-terminal coiled-coil domain of ANGPTL3 from Mus musculus with a hexahistidine tag; Mouse ANGPTL3 (17-240)-His
T5 sequence: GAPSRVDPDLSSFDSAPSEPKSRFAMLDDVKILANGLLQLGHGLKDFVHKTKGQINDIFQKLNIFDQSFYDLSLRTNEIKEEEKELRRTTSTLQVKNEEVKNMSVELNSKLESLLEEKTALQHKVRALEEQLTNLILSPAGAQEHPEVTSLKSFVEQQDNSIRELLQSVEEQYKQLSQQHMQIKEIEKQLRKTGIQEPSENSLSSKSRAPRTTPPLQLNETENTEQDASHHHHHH
Description: as §1

[7] = biological target: T5, mANGPTL3(17-240)-His; assay: SPR Biacore, antigen captured, 37C, pH 7.4, HBS-EP

B1: H4H1276S (antibody, IgG4, V domains shown)
VH: EVQLVESGGGVIQPGGSLRLSCAASGFTFDDYAMNWVRQGPGKGLEWVSAISGDGGSTYYADSVKGRFTISRDNSKNSLYLQMNSLRAEDTAFFYCAKDLRNTIFGVVIPDAFDIWGQGTMVTVSS
VL: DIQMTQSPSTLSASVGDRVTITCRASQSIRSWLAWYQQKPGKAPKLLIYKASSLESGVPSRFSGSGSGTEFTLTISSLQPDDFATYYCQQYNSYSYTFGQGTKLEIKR
In the case of B1, the Kd [1] is reported as 670 pM, the koff [1] is reported as 0.000402 s⁻¹ and the kon [1] is reported as 599000 M⁻¹ s⁻¹. It also gave a t1/2 [1] of 28.8 min, a Kd [2] of 1090 pM and a koff [2] of 0.0011 s⁻¹. For the same binder, the kon [2] was 1e+06 M⁻¹ s⁻¹, the t1/2 [2] was 10.5 min and the Kd [3] was 370 pM. For the same binder, the koff [3] was 0.000538 s⁻¹, the kon [3] was 1.45e+06 M⁻¹ s⁻¹ and the t1/2 [3] was 21.5 min. For the same binder, the Kd [4] was 1350 pM, the koff [4] was 0.000464 s⁻¹ and the kon [4] was 344000 M⁻¹ s⁻¹. For the same binder, the t1/2 [4] was 25 min, the Kd [5] was 659 pM and the koff [5] was 0.000383 s⁻¹. The kon [5] was 582000 M⁻¹ s⁻¹, the t1/2 [5] was 30 min and the Kd [6] was 458 pM. It also gave a koff [6] of 0.000307 s⁻¹, a kon [6] of 670000 M⁻¹ s⁻¹ and a t1/2 [6] of 37.6 min. For the same binder, the Kd [7] was 1180 pM, the koff [7] was 0.000964 s⁻¹ and the kon [7] was 819000 M⁻¹ s⁻¹. For the same binder, the t1/2 [7] was 12 min.
